Experimental data as given in patent publication US20220396792, “METHOD FOR PRODUCING NUCLEIC ACID MOLECULE, BIOMATERIAL, AND METHOD FOR PRODUCING BIOMATERIAL” (NEC Solution Innovators, Ltd., published 2022).

Assays:
VEGF165 [1] = biological target: T1, VEGF165 (UniProt P15692-4 P15692-4:27-191); test: SPR; 25 C, SB1T pH 7.4, 1 mM MgCl2, 0.01% Tween 20; settings: tags: PeproTech 100-20; chain copies: 2
Description: (§1) First, as a sensor chip designed specifically for the ProteOn, a streptavidin-immobilized chip (trade name: ProteOn NLC Sensor Chip, BioRad) was set in the ProteOn XPR36. 5 μmol/L biotinylated poly(dT) was injected to a flow cell of the sensor chip using ultrapure water (DDW), and the binding was allowed to proceed until the signal intensity (RU: Resonance Unit) was saturated. The biotinylated poly(dT) was prepared by biotinylating the 5′ end of 20-mer deoxythymidine. Then, each of the poly(dA)-added aptamers (200 nmol/L) was injected to the flow cell of the chip using an SB1T buffer at a flow rate of 25 μL/min for 80 seconds, and the binding was allowed to proceed until the signal intensity was saturated. Subsequently, each of the samples (5 nmol/L) was injected using an SB1T buffer at a flow rate of 50 μL/min for 300 seconds, followed by washing performed by flowing the SB1T buffer under the same conditions. With the time at which the injection was started being 0 seconds, the signal intensity after the sample injection was measured. The SPR was carried out at 25° C.
The pH of the SB1T buffer was 7.4.

[2] = biological target: BSA (bovine serum albumin) (Bos taurus, UniProt P02769 P02769:25-607); test: SPR; signal 0 or less, 5 nM, 25 C; settings: tags: Sigma A7906
Description: (§2) The analysis of the binding properties was carried out using a ProteOn XPR36 (BioRad) in accordance with its instructions for use.
as §1
(§3) The horizontal axis indicates the time (sec) elapsed after the start of the sample injection, and the vertical axis indicates the signal intensity (RU).

VEGF121 = VEGF121 (UniProt P15692-9 P15692-9:27-147); test: SPR; signal 0 or less, 5 nM, 25 C; settings: tags: PeproTech 100-20A; chain copies: 2
Description: as §2, §1, §3

VEGF165 [3] = biological target: T1, VEGF165; test: SPR; 37 C, no Ca, 1 nM VEGF165; settings: tags: PeproTech 100-20; chain copies: 2
[4] = biological target: VEGF receptor (KDR/VEGFR2) (UniProt P35968 P35968:20-764); test: SPR; 5 nM receptor alone, 25 C; receptor binds aptamer-bound VEGF165; settings: tags: R&D Systems 357-KD-050/CF; chain copies: 2
Description: The aptamers 1 to 5 were used as aptamers, and the VEGF sample and a VEGF receptor sample were used as samples. The VEGF receptor sample was prepared in the same manner as the VEGF sample, except that a VEGF receptor (R&D systems, Cat. No: 357-KD-050/CF) was used instead of the VEGF.
The analysis of binding properties by SPR was carried out in the following manner. First, biotinylated poly(dT) was bound to the sensor chip and each of the poly(dA)-added aptamers was then bound to the chip in the same manner as in Example 1. Subsequently, the 5 nmol/L VEGF sample was injected using an SB1T buffer at a flow rate of 50 μL/min for 240 seconds (first injection), followed by washing performed by flowing the SB1T buffer under the same conditions. Thereafter, the 5 nmol/L VEGF receptor sample was injected using an SB1T buffer at a flow rate of 50 μL/min for 240 seconds (second injection), followed by washing performed by flowing the SB1T buffer under the same conditions. With the time at which the first injection was started being 0 seconds, the signal intensity after the sample injection was measured. The SPR was carried out at 25° C. Also, analysis of binding properties by SPR was carried out in the same manner, except that the first and second injections were performed using the combinations shown in Table 1 below instead of the combination of the VEGF sample and the VEGF receptor sample.
FIGS. 8A to 8E are graphs respectively showing the binding properties of the aptamers 1 to 5 to the samples. […] The horizontal axis indicates the time (sec) elapsed after the start of the first injection, and the vertical axis indicates the signal intensity (RU).

Chain of BSA (bovine serum albumin) (P02769 25-607, one chain of several): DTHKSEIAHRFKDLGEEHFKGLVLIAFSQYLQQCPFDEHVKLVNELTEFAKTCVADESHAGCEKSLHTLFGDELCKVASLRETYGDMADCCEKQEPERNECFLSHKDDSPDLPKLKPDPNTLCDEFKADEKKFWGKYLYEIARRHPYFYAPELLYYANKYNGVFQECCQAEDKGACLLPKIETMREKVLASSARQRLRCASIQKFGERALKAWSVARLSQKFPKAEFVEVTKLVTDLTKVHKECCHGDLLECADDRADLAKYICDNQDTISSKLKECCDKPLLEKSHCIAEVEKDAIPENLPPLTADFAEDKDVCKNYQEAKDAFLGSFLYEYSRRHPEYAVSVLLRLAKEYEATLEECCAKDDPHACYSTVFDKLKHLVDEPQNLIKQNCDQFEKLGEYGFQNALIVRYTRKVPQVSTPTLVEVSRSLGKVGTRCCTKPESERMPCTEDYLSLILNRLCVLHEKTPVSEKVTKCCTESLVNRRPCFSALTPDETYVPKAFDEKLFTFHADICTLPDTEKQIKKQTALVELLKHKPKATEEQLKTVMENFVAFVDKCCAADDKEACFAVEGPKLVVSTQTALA
Chain of VEGF receptor (KDR/VEGFR2) (P35968 20-764, one chain of several): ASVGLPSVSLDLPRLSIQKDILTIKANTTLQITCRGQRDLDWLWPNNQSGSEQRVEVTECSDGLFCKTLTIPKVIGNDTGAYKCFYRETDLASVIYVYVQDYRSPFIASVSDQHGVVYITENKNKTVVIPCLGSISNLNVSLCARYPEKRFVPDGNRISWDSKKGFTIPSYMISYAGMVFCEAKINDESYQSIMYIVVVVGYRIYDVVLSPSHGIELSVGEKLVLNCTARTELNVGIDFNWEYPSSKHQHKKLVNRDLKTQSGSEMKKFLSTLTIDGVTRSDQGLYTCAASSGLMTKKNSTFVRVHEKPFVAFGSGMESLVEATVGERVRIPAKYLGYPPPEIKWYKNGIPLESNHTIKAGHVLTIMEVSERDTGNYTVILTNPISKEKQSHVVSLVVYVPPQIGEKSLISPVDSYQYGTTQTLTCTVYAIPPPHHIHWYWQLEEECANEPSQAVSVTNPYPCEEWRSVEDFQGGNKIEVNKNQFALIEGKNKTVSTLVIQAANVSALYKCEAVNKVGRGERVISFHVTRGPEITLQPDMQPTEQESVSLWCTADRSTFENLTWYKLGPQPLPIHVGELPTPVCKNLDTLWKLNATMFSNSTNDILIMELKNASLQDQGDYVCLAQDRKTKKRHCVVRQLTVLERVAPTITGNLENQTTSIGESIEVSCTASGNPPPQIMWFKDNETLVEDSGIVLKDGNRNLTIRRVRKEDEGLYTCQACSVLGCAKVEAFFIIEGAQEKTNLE
T1 sequence (P15692 other isoform, or with tags, fused parts or gaps): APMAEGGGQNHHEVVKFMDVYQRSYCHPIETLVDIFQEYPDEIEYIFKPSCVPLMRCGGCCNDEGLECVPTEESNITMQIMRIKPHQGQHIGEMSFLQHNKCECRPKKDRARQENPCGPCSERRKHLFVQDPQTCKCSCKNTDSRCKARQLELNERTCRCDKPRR
Chain of VEGF121 (P15692 other isoform, or with tags, fused parts or gaps): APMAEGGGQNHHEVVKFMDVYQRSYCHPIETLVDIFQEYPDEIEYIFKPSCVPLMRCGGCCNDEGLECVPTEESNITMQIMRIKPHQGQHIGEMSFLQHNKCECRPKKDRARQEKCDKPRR

| Binder | Kd (VEGF165 [1]) | binding result [2] | binding result (VEGF121) | binding result (VEGF165 [3]) | binding result [4] |
| --- | --- | --- | --- | --- | --- |
| CCTTAGTTTAAAGTCACGTCTTAGTTTAAGAAAAAAAAAAAAAAAAAAAA (ssDNA) [Aptamer 7 VEGF_L30_2 with 3' poly(dA)20] | < 0.001 nM |  |  |  |  |
| TTAGTTTAAAGTCACGTCTTAGTTTAAGAAAAAAAAAAAAAAAAAAAA (ssDNA) [Aptamer 9 VEGF_L28_1 with 3' poly(dA)20] | 0.0149 nM |  |  |  |  |
| TTAGTTTAAAGTCACGTCTTAGTTTAAAAAAAAAAAAAAAAAAAAAA (ssDNA) [Aptamer 11 VEGF_L27_1 with 3' poly(dA)20] | 0.0276 nM |  |  |  |  |
| TAGTTTAAAGTCACGTCTTAGTTTAAAAAAAAAAAAAAAAAAAAAA (ssDNA) [Aptamer 12 VEGF_L26_1 with 3' poly(dA)20] | 0.0545 nM |  |  |  |  |
| CTTAGTTTAAAGTCACGTCTTAGTTTAAGAAAAAAAAAAAAAAAAAAAA (ssDNA) [Aptamer 8 VEGF_L29_1 with 3' poly(dA)20] | 0.0993 nM |  |  |  |  |
| TTAGTTTAAAGTCACGTCTTAGTTTAAAAAAAAAAAAAAAAAAAAA (ssDNA) [Aptamer 13 VEGF_L26_2 with 3' poly(dA)20] | 3.49 nM |  |  |  |  |
| AGTTTAAAGTCACGTCTTAGTTTAAAAAAAAAAAAAAAAAAAA (ssDNA) [Aptamer 15 VEGF_L23_1 with 3' poly(dA)20] | 92.7 nM |  |  |  |  |
| TAGTTTAAAGTCACGTCTTAGTTTAAAAAAAAAAAAAAAAAAAAA (ssDNA) [Aptamer 14 VEGF_L25_1 with 3' poly(dA)20] | 800 nM |  |  |  |  |
| CTTAGTTTAAAGTCACGTCTTAGTTTAAAAAAAAAAAAAAAAAAAAAA (ssDNA) [Aptamer 10 VEGF_L28_2 with 3' poly(dA)20] | 4170 nM |  |  |  |  |
| Aptamer 1 VEGF746CaP_R8m1 with 3' poly(dA)20 (ssDNA) DNA: GGATTGCCCGATTCACCGTAAACAGTTCTGGTTCCTTAGTTTAAAGTCACGTCTTAGTTTAAGGCATTCTGGAGCGGCATAACAAAAAAAAAAAAAAAAAAAA |  | no binding | no binding | binds | no binding |
| Aptamer 2 VEGF746CaP_5s31 with 3' poly(dA)20 (ssDNA) DNA: CCTTAGTTTAAAGTCACGTCTTAGTTTAAGGAAAAAAAAAAAAAAAAAAAA |  | no binding | no binding | binds | no binding |
| Aptamer 3 VEGF746CaP_5s49 with 3' poly(dA)20 (ssDNA) DNA: CCGTAAACAGTTCTGGTTCCTTAGTTTAAAGTCACGTCTTAGTTTAAGGAAAAAAAAAAAAAAAAAAAA |  | no binding | no binding | binds | no binding |
| Aptamer 4 VEGF746CaP_5s62 with 3' poly(dA)20 (ssDNA) DNA: TTCACCGTAAACAGTTCTGGTTCCTTAGTTTAAAGTCACGTCTTAGTTTAAGGCATTCTGGAAAAAAAAAAAAAAAAAAAAA |  | no binding | no binding | binds | no binding |
| Aptamer 5 VEGF746CaP_R8m49 with 3' poly(dA)20 (ssDNA) DNA: GGATTGCCCGATTCACCGTAAACGTTCTTACATTAGTTTAAAGTCACGTCTTAGTTTAATTAAGCATTCTGGAGCGGCATAACAAAAAAAAAAAAAAAAAAAA |  | no binding | no binding | binds | no binding |
| CTTAGTTTAAAGTCACGTCTTAGTTTAAGGAAAAAAAAAAAAAAAAAAAA (ssDNA) [Aptamer 6 VEGF_L30_1 with 3' poly(dA)20] | < 0.001 nM |  |  |  |  |
